Results reported in patent US20250237641A1 (priority 2021, published 2025).

B1: IFN-γ: cytokine interferon gamma, used to induce APOL1 expression (protein, UniProt P01579 24-161, looked up)
Interferon gamma: QDPYVKEAENLKKYFNAGHSDVADNGTLFLGILKNWKEESDRKIMQSQIVSFYFKLFKNFKDDQSIQKSVETIKEDMNVKFFNSNKKKRDDFEKLTNYSVTDLNVQRKAIHELIQVMAELSPAAKTGKRKRSQMLFRG

Experiments:
SARS-CoV-2 = test: Plaque assay of supernatants from SARS-CoV-2 infected kidney organoids treated with remdesivir; format: cell-based; conditions: 2 μM remdesivir immediately after infection with SARS-CoV-2 or SARS-CoV-2-mNG; vs untreated organoids
Protocol: Mean±SEM of three independent experiments. Paired t-test, **p<0.01.
To investigate the efficacy of remdesivir, kidney organoids were infected with SARS-CoV-2 or SARS-CoV-2-mNG, and then treated with a 2 μM dose of remdesivir immediately after infection (FIG. 5A).

kidney organoids = conditions: short term, at the efficacious dose (2 μM)
COVID-19 patients = conditions: cited from earlier work
[1] = tested on: kidney organoid podocytes; test: Time-lapse imaging of GFP-PODXL kidney organoids under prolonged treatment (podocyte integrity, organoid size); format: cell-based, human
Protocol: It was determined whether podocytes are damaged by prolonged IFN-γ treatment. As shown at FIG. 24A, an example time course for prolonged IFN-γ treatment involves regular imaging of organoids during treatment of mature organoids with IFN-γ prior to fixation. […] Further, podocyte junctional tracks appear intact with 7d IFN-γ treatment (results from confocal immunofluorescence microscopy of control versus 7d IFN-γ treatment; markers: ZO-1, Synaptopodin, ZO-1+Synaptopodin, APOL1, and DAPI). Based on these observations, it was concluded that podocytes appear largely undamaged by prolonged IFN-γ treatment.

APOL1 expression = APOL1 expression in kidney organoids on agonist (IFN-γ) treatment, immunofluorescence; format: cell-based, human
Protocol: Experiments were performed to determine APOL1 localization in normal human kidney and stimulation in kidney organoids.

[2] = tested on: kidney organoid endothelial networks; test: Endothelial networks and tubular structures of kidney organoids under prolonged IFN-γ treatment; format: cell-based, human; conditions: prolonged (7d) treatment
Source text: As such, it was next determined whether JAK ½ inhibition prevents IFN-γ-induced loss of endothelial networks and disorganization of tubular structures. […] As a result, it was concluded that JAK ½ inhibition prevents IFN-γ-induced loss of endothelial networks and disorganization of tubular structures.

[3] = prolonged treatment of mature organoids

Row | Molecule | reduced replicated virus in supernatants (plaque assay) (SARS-CoV-2) | safety in kidney cells (kidney organoids) | tolerability (COVID-19 patients; AKI and CKD patients) | risk of developing AKI (COVID-19 patients; remdesivir-treated patients) | organoid size [1, 3] | APOL1 agonist screen result (APOL1 expression; 24-hour screen) | saturating dose for APOL1 expression (APOL1 expression; 24 hr, fluorescent intensity of APOL1 in organoids) [ng/mL] | APOL1 expression on titration (APOL1 expression; IFN-γ titration) | effect on endothelial networks and tubular structures [2] | podocyte junctional tracks ([1]; 7d treatment, ZO-1, Synaptopodin staining) | loss of GFP-PODXL [1, 3]
1 | CCC(CC)COC(=O)[C@H](C)N[P@](=O)(OC[C@H]1O[C@@](C#N)(c2ccc3c(N)ncnn23)[C@H](O)[C@@H]1O)Oc1ccccc1 [remdesivir] | 71.4%±18% | supports short term safety | tolerated well | increase chances of developing AKI |  |  |  |  |  |  | 
2 | tunicamycin [reference compound] |  |  |  |  | shrink in size |  |  |  |  |  | 
3 | B1 |  |  |  |  | no significant change | strong agonist for APOL1 expression | 100 | dose-responsive activation of APOL1 expression | pronounced loss of endothelial networks and tubular structures | appear intact | does not result in enhanced loss of GFP-PODXL
